In patent US20260055200A1, “COMBINATION THERAPIES” (Alligator Bioscience AB, priority 2022, published 2026):
“Also recorded” adds a separate entry of the source.

Experiments:
[1] = tested on: metastatic pancreatic ductal adenocarcinoma; assay: OPTIMIZE-1 anti-tumour activity per RECIST v. 1.1 (ORR, BOR, DCR, DoR, time to progression, PFS, OS); type: in vivo, human
Description: The interim analysis was based on objective response rate (ORR) observed for all patients dosed at the mitazalimab RP2D. The interim analysis included efficacy data up to 17 weeks of study treatment (8 cycles for mFOLFIRINOX and 4 cycles for gemcitabine plus nab-paclitaxel).
A CT scan is performed at screening (within 28 days of first dose), 9 weeks after start of study treatment (end of cycle 4 for mFOLFIRINOX combination and at end of Cycle 2 for gemcitabine plus nab-paclitaxel treatment) and thereafter at every 8th week assuming no treatment delays. Additional CT scans may be performed at the discretion of the Investigator at unscheduled visits. The CT scans were evaluated according to RECIST v. […] Patients with response (PR or CR) can have a confirmatory CT scan at least 4 weeks later to confirm the response.
The evaluation of tumour response was done according to RECIST v. 1.1 by the investigational sites using CT scans according to Example 3 RECIST v. […] Patients with PD can discontinue study treatment. However, patients with suspected progression are allowed to continue on treatment if they are considered to be clinically stable in the opinion of the Investigator until clinical or radiological progression is documented.
For the interim analysis, the ORR was based on the response evaluation after 8 cycles for mitazalimab in combination with mFOLFIRINOX or 4 cycles for mitazalimab in combination with gemcitabine plus nab-paclitaxel (i.e., approximately 4 months after first dose). […] In addition, ORR was presented for each study visit. Patients not evaluable for ORR and who completed at least 2 cycles were considered as non-responders.
All secondary efficacy endpoint were presented using descriptive statistics. Best Overall Response (BOR) for each patient will be defined as the best response from RECIST v. 1.1 categories CR, PR, SD and PD at any time during the study. Disease control rate will be defined as either CR, PR or SD at each visit as determined by RECIST v. […] The duration of response (DoR) was defined as number of days from initial response of CR or PR to progressive disease or death due to underlying disease, whichever came first. Duration of Stable Disease (SD) was defined as number of days from first dose of mitazalimab to progressive disease or death, whichever came first. Time to next anti-cancer therapy was defined as number of days from the time from first dose of mitazalimab to next treatment initiated.

[2] = tested on: tumour associated macrophages (TAMs); settings: TAMs from human prostate and ovarian tumour samples; cited from earlier work
[3] = tested on: advanced stage solid tumours; settings: cited from earlier work
[4] = 450 μg/kg mitazalimab, N = 5, Table 42
[5] = 450 μg/kg mitazalimab, N = 5, safety set, Table 25
[6] = 900 μg/kg mitazalimab + mFOLFIRINOX, FAS N = 23, futility analysis, responses need not be confirmed
[7] = 900 μg/kg mitazalimab + mFOLFIRINOX, FAS N = 57
[8] = 900 μg/kg mitazalimab + mFOLFIRINOX, FAS N = 57, including unconfirmed responses
[9] = 900 μg/kg mitazalimab + mFOLFIRINOX, FAS N = 57, 95% CI (5.8-9.4)
[10] = 900 μg/kg mitazalimab + mFOLFIRINOX, FAS N = 57, first block of Table 49
[11] = 900 μg/kg mitazalimab + mFOLFIRINOX, FAS N = 57, second block of Table 49
[12] = 900 μg/kg mitazalimab + mFOLFIRINOX, FAS, n = 18
[13] = 900 μg/kg mitazalimab, N = 23, FAS, data cut-off 2022 Dec. 8
[14] = 900 μg/kg mitazalimab, N = 38, safety set, Table 25
[15] = 900 μg/kg mitazalimab, N = 65, Table 42
[16] = Overall, N = 43, safety set, Table 25
[17] = futility analysis (FAS), 900 μg/kg mitazalimab and mFOLFIRINOX, 23 patients
[18] = individual patients, End of Treatment visit, 900 μg/kg mitazalimab + mFOLFIRINOX, futility analysis
[19] = individual patients, Unscheduled visit, 900 μg/kg mitazalimab + mFOLFIRINOX, futility analysis
[20] = individual patients, visit Cycle 4, 900 μg/kg mitazalimab + mFOLFIRINOX, futility analysis
[21] = individual patients, visit Cycle 8, 900 μg/kg mitazalimab + mFOLFIRINOX, futility analysis

B1: Mitazalimab: agonistic, human monoclonal (IgG1) antibody targeting CD40 (antibody, chains of the INN, looked up, V domains shown)
VH: EVQLLESGGGLVQPGGSLRLSCAASGFTFSTYGMHWVRQAPGKGLEWLSYISGGSSYIFYADSVRGRFTISRDNSENALYLQMNSLRAEDTAVYYCARILRGGSGMDLWGQGTLVTVSS
VL: QSVLTQPPSASGTPGQRVTISCTGSSSNIGAGYNVYWYQQLPGTAPKLLIYGNINRPSGVPDRFSGSKSGTSASLAISGLRSEDEADYYCAAWDKSISGLVFGGGTKLTVL
Discontinued study: Death due to disease progression, number of patients [1, 4]: 4 | Discontinued study: Death due to disease progression, percentage relative to number discontinued [1, 4]: 80.0% | Discontinued treatment: Death, number of patients [1, 4]: 0 | Discontinued treatment: Death, percentage relative to number discontinued [1, 4]: 0.0% | Discontinued treatment: No longer clinically benefiting, number of patients [1, 4]: 0 | Discontinued treatment: No longer clinically benefiting, percentage relative to number discontinued [1, 4]: 0.0% | Discontinued treatment: Progressive disease, number of patients [1, 4]: 4 | Discontinued treatment: Progressive disease, percentage relative to number discontinued [1, 4]: 80.0% | Discontinued study: Death due to disease progression, number of patients [1, 5]: 2 | Discontinued study: Death due to disease progression, percentage of patients [1, 5]: (40.0) % | Discontinued treatment: Clear clinical deterioration, number of patients [1, 5]: 0 | Discontinued treatment: Clear clinical deterioration, percentage of patients [1, 5]: (0.0) % | Discontinued treatment: Death due to disease progression, number of patients [1, 5]: 2 | Discontinued treatment: Death due to disease progression, percentage of patients [1, 5]: (40.0) % | Discontinued treatment: Progressive disease, number of patients [1, 5]: 2 | Discontinued treatment: Progressive disease, percentage of patients [1, 5]: (40.0) % | Disease control rate (FAS) ([1]; 900 μg/kg Mitazalimab (N = 57) with mFOLFIRINOX, CR, PR or SD as best overall response, RECIST 1.1): 44 (77.2) | Disease control rate (CR, PR or SD), % ([1]; 900 μg/kg mitazalimab + mFOLFIRINOX, FAS N = 23, futility analysis): (91.3) % | Best Overall Response: Partial response, % [1, 6]: (52.2) % | Best Overall Response: Progressive disease, % [1, 6]: (8.7) % | Best Overall Response: Stable disease, % [1, 6]: (39.1) % | Responders (complete or partial response, RECIST 1.1), % [1, 6]: (52.2) % | BOR: Not evaluable, number of patients [1, 7]: 1 | BOR: Not evaluable, percentage of patients [1, 7]: (1.8) % | Time to progression: Censored patients, % [1, 7]: (54.4) % | Time to progression: Patients with event, % [1, 7]: (45.6) % | BOR: Complete response, number of patients [1, 8]: 0 | BOR: Complete response, percentage of patients [1, 8]: (0.0) % | BOR: Partial response, number of patients [1, 8]: 25 | BOR: Partial response, percentage of patients [1, 8]: (43.9) % | BOR: Progressive disease, number of patients [1, 8]: 12 | BOR: Progressive disease, percentage of patients [1, 8]: (21.1) % | BOR: Stable disease, number of patients [1, 8]: 19 | BOR: Stable disease, percentage of patients [1, 8]: (33.3) % | ORR: Confidence Interval of responders (two-sided exact binomial 90%) [1, 8]: 32.6-55.6 | ORR: Responders, number of patients [1, 8]: 25 | ORR: Responders, percentage of patients [1, 8]: (43.9) % | Progression-free survival: Median time to event [1, 9]: 7.2 months | Time to progression: Median time to event [1, 9]: 7.2 months | Progression-free survival: Censored patients, % [1, 10]: (52.6) % | Progression-free survival: Patients with event, % [1, 10]: (47.4) % | Overall survival: Censored patients, % [1, 11]: (78.9) % | Overall survival: Patients with event, % [1, 11]: (21.1) % | Duration of response: Censored patients, % [1, 12]: (72.2) % | Duration of response: Patients with event, % [1, 12]: (27.8) % | Time to response: Median time to event ([1]; 900 μg/kg mitazalimab + mFOLFIRINOX, FAS, n = 18, 95% CI (1.9-3.7)): 2.2 months | Duration of response: Median time to event ([1]; 900 μg/kg mitazalimab + mFOLFIRINOX, FAS, n = 18, 95% CI (5.5; NE)): 8.7 months | Discontinued study: Death due to disease progression, number of patients [1, 13]: 1 | Discontinued study: Death due to disease progression, percentage of patients [1, 13]: (4.3) % | Discontinued treatment: Clear clinical deterioration, number of patients [1, 13]: 1 | Discontinued treatment: Clear clinical deterioration, percentage of patients [1, 13]: (4.3) % | Discontinued treatment: Death due to disease progression, number of patients [1, 13]: 1 | Discontinued treatment: Death due to disease progression, percentage of patients [1, 13]: (4.3) % | Discontinued treatment: Progressive disease, number of patients [1, 13]: 2 | Discontinued treatment: Progressive disease, percentage of patients [1, 13]: (8.7) % | Discontinued study: Death due to disease progression, number of patients [1, 14]: 1 | Discontinued study: Death due to disease progression, percentage of patients [1, 14]: (2.6) % | Discontinued treatment: Clear clinical deterioration, number of patients [1, 14]: 1 | Discontinued treatment: Clear clinical deterioration, percentage of patients [1, 14]: (2.6) % | Discontinued treatment: Death due to disease progression, number of patients [1, 14]: 1 | Discontinued treatment: Death due to disease progression, percentage of patients [1, 14]: (2.6) % | Discontinued treatment: Progressive disease, number of patients [1, 14]: 3 | Discontinued treatment: Progressive disease, percentage of patients [1, 14]: (7.89) % | Discontinued study: Death due to disease progression, number of patients [1, 15]: 15 | Discontinued study: Death due to disease progression, percentage relative to number discontinued [1, 15]: 83.3% | Discontinued treatment: Death, number of patients [1, 15]: 1 | Discontinued treatment: Death, percentage relative to number discontinued [1, 15]: 3.0% | Discontinued treatment: No longer clinically benefiting, number of patients [1, 15]: 3 | Discontinued treatment: No longer clinically benefiting, percentage relative to number discontinued [1, 15]: 9.1% | Discontinued treatment: Progressive disease, number of patients [1, 15]: 19 | Discontinued treatment: Progressive disease, percentage relative to number discontinued [1, 15]: 57.6% | Discontinued study: Death due to disease progression, number of patients [1, 16]: 3 | Discontinued study: Death due to disease progression, percentage of patients [1, 16]: (7.0) % | Discontinued treatment: Clear clinical deterioration, number of patients [1, 16]: 1 | Discontinued treatment: Clear clinical deterioration, percentage of patients [1, 16]: (2.3) % | Discontinued treatment: Death due to disease progression, number of patients [1, 16]: 3 | Discontinued treatment: Death due to disease progression, percentage of patients [1, 16]: (7.0) % | Discontinued treatment: Progressive disease, number of patients [1, 16]: 5 | Discontinued treatment: Progressive disease, percentage of patients [1, 16]: (11.6) % | Discontinued treatment: Death, number of patients ([1]; Overall, Table 42): 1 | Discontinued treatment: Death, percentage relative to number discontinued ([1]; Overall, Table 42): 2.6% | Discontinued treatment: No longer clinically benefiting, number of patients ([1]; Overall, Table 42): 3 | Discontinued treatment: No longer clinically benefiting, percentage relative to number discontinued ([1]; Overall, Table 42): 7.7% | Discontinued treatment: Progressive disease, number of patients ([1]; Overall, Table 42): 24 | Discontinued treatment: Progressive disease, percentage relative to number discontinued ([1]; Overall, Table 42): 61.5% | ORR [1, 17]: 52.2% | disease control rate [1, 17]: 91.3% | responders with a confirmed response via a subsequent scan ([1]; futility analysis, 900 μg/kg mitazalimab and mFOLFIRINOX): 8 out of 12 | Non-target lesion(s) response [1, 18]: Non-CR/non-PD | Overall response [1, 18]: PD (progressive disease (PD)) | Target lesion(s) response [1, 18]: PD (progressive disease (PD)) | Non-target lesion(s) response [1, 19]: Non-CR/non-PD | Overall response [1, 19]: PD (progressive disease (PD)); also recorded: SD (stable disease (SD)) | Target lesion(s) response [1, 19]: PD (progressive disease (PD)); also recorded: SD (stable disease (SD)) | Non-target lesion(s) response [1, 20]: Non-CR/non-PD | Overall response [1, 20]: SD (stable disease (SD)) | Target lesion(s) response [1, 20]: SD (stable disease (SD)) | Non-target lesion(s) response [1, 21]: Non-CR/non-PD | Overall response [1, 21]: SD (stable disease (SD)); also recorded: PD (progressive disease (PD)) | Target lesion(s) response [1, 21]: SD (stable disease (SD)); also recorded: PD (progressive disease (PD)) | Best Overall Response ([1]; individual patients, 900 μg/kg mitazalimab + mFOLFIRINOX, futility analysis, responses need not be confirmed): PD (progressive disease (PD)); also recorded: SD (stable disease (SD)) | polarization of TAMs (upregulation of e.g. CD83) [2]: from a more immune-suppressive phenotype into a more immune-inflammatory phenotype | doses shown safe and well tolerated ([3]; Phase I study NCT02829099): up to 1200 μg/kg | grade of most drug related adverse events ([3]; Phase I study NCT02829099): grade 1 or 2 | patients who experienced a DLT ([3]; headache 5 days, grade 3 liver enzyme with grade 2 bilirubin elevation): Two | MTD ([3]; human, in vivo, iv): No MTD was identified | duration of SD in one of seven pancreatic cancer patients ([3]; in vivo): more than 6 months | response observed ([3]; patient with renal cell cancer, 1200 μg/kg): partial response (PR) | time on study of the patient with PR ([3]; renal cell cancer, 1200 μg/kg, fourteen cycles): 9.2 months
